Measured values reported in the supplement of paper PMC9112550, “Optimization of the antimicrobial peptide Bac7 by deep mutational scanning” (BMC Biology, 2022).

These sequences were tested on Escherichia coli TOP10 (assay: shrunken log2 fold change of peptide-encoding DNA abundance (4.5 h post-induction vs induction); higher = less antimicrobial activity (less host growth inhibition)). Details: time post-induction: 4.5 h; library: site-saturation at positions 5, 18, 19, 20.
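Further: peptides expressed intracellularly from a pBAD plasmid library in pooled LB shake-flask culture, induced with 0.3% L-arabinose, DNA abundance read by NGS, three biological replicates, DESeq2 with apeglm shrinkage.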

| Sequence | shrunken log2 fold change |
| --- | --- |
| RRIRLRPPRLPRPRPRPIDAPRP | 0.206 |
| RRIRHRPPRLPRPRPRPHTKPRP | -0.0831 |
| RRIRQRPPRLPRPRPRPPYKPRP | -0.166 |
| RRIRRRPPRLPRPRPRPRLCPRP | 0.472 |
| RRIRARPPRLPRPRPRPIGQPRP | 0.34 |
| RRIRSRPPRLPRPRPRPYNWPRP | -0.0406 |
| RRIRMRPPRLPRPRPRPDITPRP | 2.12 |
| RRIRYRPPRLPRPRPRPGFSPRP | -0.0944 |
| RRIRCRPPRLPRPRPRPFKWPRP | -0.115 |
| RRIRYRPPRLPRPRPRPGQGPRP | -0.0311 |
| RRIRKRPPRLPRPRPRPMSHPRP | -0.0712 |
| RRIRKRPPRLPRPRPRPYNFPRP | -0.384 |
| RRIRKRPPRLPRPRPRPFPFPRP | -0.255 |
| RRIRERPPRLPRPRPRPKIYPRP | -0.165 |
| RRIRNRPPRLPRPRPRPMRNPRP | 0.115 |
| RRIRIRPPRLPRPRPRPHHWPRP | -0.18 |
| RRIRERPPRLPRPRPRPIQSPRP | -0.642 |
| RRIRNRPPRLPRPRPRPIQCPRP | -0.01 |
| RRIRVRPPRLPRPRPRPWNNPRP | -0.204 |
| RRIRNRPPRLPRPRPRPDLPPRP | -0.221 |
| RRIRDRPPRLPRPRPRPCTKPRP | -0.0891 |
| RRIRERPPRLPRPRPRPQYIPRP | -0.219 |
| RRIRKRPPRLPRPRPRPWRIPRP | 0.0387 |
| RRIRPRPPRLPRPRPRPWMCPRP | -0.366 |
| RRIRTRPPRLPRPRPRPFEEPRP | 0.00896 |

| Sequence | shrunken log2 fold change |
| --- | --- |
| RRIRTRPPRLPRPRPRPHWWPRP | 0.203 |
| RRIRMRPPRLPRPRPRPYQWPRP | -0.055 |
| RRIRHRPPRLPRPRPRPMDSPRP | -0.00141 |
| RRIRSRPPRLPRPRPRPQTVPRP | -0.26 |
| RRIRLRPPRLPRPRPRPVKGPRP | -0.00152 |
| RRIRQRPPRLPRPRPRPYAEPRP | -0.0595 |
| RRIRCRPPRLPRPRPRPNEMPRP | -0.123 |
| RRIRLRPPRLPRPRPRPRMNPRP | 0.179 |
| RRIRYRPPRLPRPRPRPYVFPRP | -0.0427 |
| RRIRGRPPRLPRPRPRPADVPRP | 0.508 |
| RRIRYRPPRLPRPRPRPTDAPRP | -0.0292 |
| RRIRRRPPRLPRPRPRPMRQPRP | 0.202 |
| RRIRMRPPRLPRPRPRPRYMPRP | -0.212 |
| RRIRSRPPRLPRPRPRPWARPRP | 0.0355 |
| RRIRLRPPRLPRPRPRPVISPRP | -0.266 |
| RRIRNRPPRLPRPRPRPNISPRP | -0.476 |
| RRIRGRPPRLPRPRPRPKSLPRP | 0.413 |
| RRIRYRPPRLPRPRPRPNAVPRP | -0.00911 |
| RRIRYRPPRLPRPRPRPTTEPRP | 0.00298 |
| RRIRIRPPRLPRPRPRPGQGPRP | -0.257 |
| RRIRNRPPRLPRPRPRPRVTPRP | 0.0249 |
| RRIRSRPPRLPRPRPRPSSTPRP | -0.397 |
| RRIRVRPPRLPRPRPRPKAPPRP | 0.592 |
| RRIRERPPRLPRPRPRPYKDPRP | -0.157 |
| RRIRIRPPRLPRPRPRPWYDPRP | -0.0891 |

| Sequence | shrunken log2 fold change |
| --- | --- |
| RRIRIRPPRLPRPRPRPEDKPRP | -0.401 |
| RRIRLRPPRLPRPRPRPNTQPRP | -0.0732 |
| RRIRVRPPRLPRPRPRPQLCPRP | -0.143 |
| RRIRDRPPRLPRPRPRPMVLPRP | 0.359 |
| RRIRARPPRLPRPRPRPFHNPRP | -0.625 |
| RRIRCRPPRLPRPRPRPLPFPRP | -0.71 |
| RRIRVRPPRLPRPRPRPWRCPRP | -0.0179 |
| RRIRHRPPRLPRPRPRPCSYPRP | -0.0203 |
| RRIRRRPPRLPRPRPRPHQWPRP | 0.144 |
| RRIRKRPPRLPRPRPRPGTNPRP | 0.124 |
| RRIRYRPPRLPRPRPRPYEPPRP | -0.248 |
| RRIRIRPPRLPRPRPRPKTYPRP | -0.879 |
| RRIRERPPRLPRPRPRPAIVPRP | 0.00833 |
| RRIRWRPPRLPRPRPRPCIPPRP | -0.0746 |
| RRIRSRPPRLPRPRPRPTSMPRP | -0.187 |
| RRIRGRPPRLPRPRPRPYVNPRP | 0.0862 |
| RRIRYRPPRLPRPRPRPTTKPRP | -0.179 |
| RRIRFRPPRLPRPRPRPFMMPRP | -0.693 |
| RRIRSRPPRLPRPRPRPVEDPRP | -0.0519 |
| RRIRYRPPRLPRPRPRPSKCPRP | -0.00419 |
| RRIRFRPPRLPRPRPRPNSFPRP | -0.894 |
| RRIRKRPPRLPRPRPRPWCCPRP | -0.187 |
| RRIRFRPPRLPRPRPRPQHGPRP | -0.126 |
| RRIRQRPPRLPRPRPRPIIHPRP | -0.054 |
| RRIRARPPRLPRPRPRPKIDPRP | 0.115 |

| Sequence | shrunken log2 fold change |
| --- | --- |
| RRIRIRPPRLPRPRPRPTFSPRP | -0.545 |
| RRIRCRPPRLPRPRPRPMQIPRP | 0.0467 |
| RRIRLRPPRLPRPRPRPFQIPRP | -0.109 |
| RRIRIRPPRLPRPRPRPEQHPRP | -0.0723 |
| RRIRFRPPRLPRPRPRPCCPPRP | -0.468 |
| RRIRLRPPRLPRPRPRPICNPRP | -0.243 |
| RRIRGRPPRLPRPRPRPHTYPRP | -0.0875 |
| RRIRYRPPRLPRPRPRPCVRPRP | 0.0523 |
| RRIRERPPRLPRPRPRPAVYPRP | -0.221 |
| RRIRLRPPRLPRPRPRPSIIPRP | -0.735 |
| RRIRVRPPRLPRPRPRPPDTPRP | 0.166 |
| RRIRMRPPRLPRPRPRPPWMPRP | 0.537 |
| RRIRLRPPRLPRPRPRPQDHPRP | -0.203 |
| RRIRKRPPRLPRPRPRPKEAPRP | 0.334 |
| RRIRHRPPRLPRPRPRPMHMPRP | -0.0761 |
| RRIRFRPPRLPRPRPRPEQIPRP | 0.131 |
| RRIRIRPPRLPRPRPRPVDNPRP | -0.0726 |
| RRIRKRPPRLPRPRPRPHLWPRP | 0.709 |
| RRIRGRPPRLPRPRPRPLIKPRP | 0.469 |
| RRIRGRPPRLPRPRPRPFVEPRP | 0.236 |
| RRIRYRPPRLPRPRPRPDGLPRP | -0.528 |
| RRIRMRPPRLPRPRPRPVNMPRP | -0.292 |
| RRIRARPPRLPRPRPRPYSFPRP | -0.0794 |
| RRIRCRPPRLPRPRPRPDVDPRP | 0.0251 |
| RRIRCRPPRLPRPRPRPLQWPRP | -0.0609 |

| Sequence | shrunken log2 fold change |
| --- | --- |
| RRIRCRPPRLPRPRPRPSVFPRP | -0.614 |
| RRIRDRPPRLPRPRPRPHEVPRP | 0.0253 |
| RRIRVRPPRLPRPRPRPGMAPRP | 0.183 |
| RRIRLRPPRLPRPRPRPWHEPRP | 0.0149 |
| RRIRLRPPRLPRPRPRPITKPRP | 0.00247 |
| RRIRFRPPRLPRPRPRPPAWPRP | 0.354 |
| RRIRTRPPRLPRPRPRPDDPPRP | -0.00805 |
| RRIRNRPPRLPRPRPRPRSNPRP | -0.0866 |
| RRIRQRPPRLPRPRPRPETYPRP | -0.213 |
| RRIRSRPPRLPRPRPRPGAQPRP | 0.68 |
| RRIRERPPRLPRPRPRPGRPPRP | 0.164 |
| RRIRVRPPRLPRPRPRPQVVPRP | -0.00557 |
| RRIRQRPPRLPRPRPRPIVQPRP | -0.0505 |
| RRIRMRPPRLPRPRPRPQGGPRP | 0.631 |
| RRIRERPPRLPRPRPRPPACPRP | 0.0779 |
| RRIRPRPPRLPRPRPRPSMGPRP | -0.156 |
| RRIRSRPPRLPRPRPRPHTFPRP | -1.36 |
| RRIRKRPPRLPRPRPRPPWTPRP | 0.527 |
| RRIRRRPPRLPRPRPRPFWHPRP | -0.0292 |
| RRIRTRPPRLPRPRPRPEFLPRP | -0.536 |
| RRIRQRPPRLPRPRPRPSWGPRP | -0.0627 |
| RRIRGRPPRLPRPRPRPPMHPRP | 0.95 |
| RRIRRRPPRLPRPRPRPVSTPRP | -0.134 |
| RRIRVRPPRLPRPRPRPHFFPRP | -0.0497 |
| RRIRGRPPRLPRPRPRPDLAPRP | 1.59 |

| Sequence | shrunken log2 fold change |
| --- | --- |
| RRIRHRPPRLPRPRPRPCQGPRP | -0.00822 |
| RRIRTRPPRLPRPRPRPPIWPRP | 0.477 |
| RRIRHRPPRLPRPRPRPCKGPRP | -0.0269 |
| RRIRRRPPRLPRPRPRPHTTPRP | -0.303 |
| RRIRYRPPRLPRPRPRPFYSPRP | -1.23 |
| RRIRERPPRLPRPRPRPQAIPRP | -0.0062 |
| RRIRIRPPRLPRPRPRPGVHPRP | 0.241 |
| RRIRQRPPRLPRPRPRPMHSPRP | -0.165 |
| RRIRMRPPRLPRPRPRPWCRPRP | 0.0521 |
| RRIRTRPPRLPRPRPRPTEMPRP | 0.3 |
| RRIRDRPPRLPRPRPRPNQCPRP | -0.436 |
| RRIRGRPPRLPRPRPRPPRRPRP | 1.28 |
| RRIRLRPPRLPRPRPRPLRIPRP | -0.031 |
| RRIRQRPPRLPRPRPRPPKDPRP | 0.0238 |
| RRIRERPPRLPRPRPRPGKQPRP | -0.0388 |
| RRIRKRPPRLPRPRPRPGRRPRP | 0.438 |
| RRIRQRPPRLPRPRPRPYIFPRP | -0.547 |
| RRIRIRPPRLPRPRPRPAAGPRP | 0.0506 |
| RRIRTRPPRLPRPRPRPPHYPRP | 0.0354 |
| RRIRKRPPRLPRPRPRPNETPRP | 0.118 |
| RRIRFRPPRLPRPRPRPIIVPRP | -0.394 |
| RRIRVRPPRLPRPRPRPVDKPRP | -0.278 |
| RRIRYRPPRLPRPRPRPNEQPRP | 0.0039 |
| RRIRVRPPRLPRPRPRPCLLPRP | -0.072 |
| RRIRQRPPRLPRPRPRPFFAPRP | 0.414 |
